Measured values: the nanobody polyreactivity screen of Harvey et al. (2022)

Test: yeast display, Sf9 membrane polyspecificity reagent, FACS + sequencing; frameworks hold sequencing errors
Procedure, shortened: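 Sorting gates, low and high (top ~1%), were placed on anti-HA fluorescence to track expression and on streptavidin fluorescence to track reagent binding. A clone's polyreactivity label is taken from the gate it came out of. The reagent was 10% biotinylated, detergent-solubilized Sf9 membrane, applied for 1 hour at 4 °C to galactose-induced yeast display cells.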

Sequence	polyreactivity (PSR sort gate)
QVQLVESGGGLVQAGGSLRLSCAASGRIFDYYAMGWYRPAPGKERELVAAITSGGTTTYYADSVKGRFTISRDNAKNTVYVQMNSLKPEDTAVYYCAKYPYHIYHTDGDYWGQGTQVTVSS	low polyreactivity
QVQLVESGGGLVQAGGSLRLSCAASGSIFWYNAMGWYRQAPGKERELVAAISRSGSRTYYADSVKGRFTISRDNAKNTVYVQMTSLKPEATAVYYCARVRPRGLYFVLHYDYWGQGTQVTVSS	high polyreactivity
QVQLVESGGGLVQAGGSLRLSCAASGFIFRRNAMGWYRQAPGKERELVASIRSGGSTKYADSVKGRFTISRDNAKNTVYLQMTSLKPEDTAVYYCNADDPGYAVPWYWFKYDYWGQGTQVTVSS	low polyreactivity
QVQLVESGGGLVQAGGSLRLSCAASGFIFTQYAMGWYRQAPGKERELVAAITRSGGRTYYADSVKGRFTISRDNAKNTVYLQMNSLIPEDTAVYYCAVDTVTRTVLVYGDRNDSWGQGTQVTVSS	high polyreactivity
QVQLVESGGGLVQAGGSLRLSCAASGINFFGKYAMGWYRQAPGKERELVAAISWSGGRTYYADSVKWRFTISRDNAKNTVYLQMNSLKPEDTAVYYCAVYPRDAERYGYCGQGTQVTVSS	high polyreactivity
QVQLEESGGGLVQAGGRLRLSCAASGRTITRNAMGWYRQAPGKERELVAAISSRGGSTSYADSVKGRFTISRDNAKNTFYLQMNSLKPEDTAVYYCNKKTAASDYDYWGQGTQVTVSS	high polyreactivity
QVQLVESGGGLVQAGGSLRLSCAASGSIFYGNAMGWYRQAPGKERELVASITYSGGTTNYADSVKGRFTISRDNAKNTVYLQMNSLKPEDTAVYYCNADIYPDRYGSTNYDFNYWGQGTQVTVSS	low polyreactivity
QVQLVESGGGLVQAGGSLRLSCAASVLIFYWYAMGWYRQAPGKERELVAAISSAGSTNYADSVKGRFTISRDNAKNTVYLQMNSLKPEDTAVYYCYARIAYRYSNYGYWGQGTQVTVSS	low polyreactivity
QLHLVESWGGLVQAGGSLRLSCAASGILFQNNDMGSYRQAPGKERELVAAITGSGGSTYYADSVKGRFTISRDNATNTVYLQMNSLKPEDTAVYYCNAVWEYYGKSDYWGQGTQVTVSS	low polyreactivity
QVQLVESGGGLVQAGGSLRLSCAASGFIFNSYAMGWYRQAPGKERELVAAISRRGSSTYYADSVKGRFTISRDNAKNTVYLQMNSLKPEDTAVYYCAKRDRSTSWYLRDYWGQGTQVTVSS	high polyreactivity
QVQLVESGGGLVQAGGSLRLSGAASGFIFIHYAMGWYRQAPGKERELVAAIRASGTSTYYADSVKGRFTISRDNAKNTVYLQMNSLKPEDTAVYYCAAQGYLRLRTHFNYWGQGTQVTLSS	low polyreactivity
QVQLVESGGGLVQAGGSLRLSCAASGSIFVWYVMGWYRQAPGKERELVAAITWSAARTYDADSVKGRFTISRDNAKNTVYLQMNSLKPADTAVYYCAADHVSYQPSSRIFDYWGQGTQVTVSS	low polyreactivity
QVQLVESGGGLVQAGGSLRIRCAASGSTFSEYDMGWYRQAPGKERELVAAITTSGGSTYYADSVKGRFTISSDNAKNTVYLQMNSLKPEDTAVYYCAADSIGNYLLYDYWGQGTQVSVSS	low polyreactivity
QVQLVESGGGLVQAGGSLRLSCAASGFTFRRYTMGWYRQAPGKERELVARISSRGGRTFYADSVKGRFTISRDNAKNTVYLQMNSLKPEDTAVYYCAKRAPYGTTSPGGDYWGQGTQVTVSS	high polyreactivity
QVQLVESGGGLVQAGGSLRLSCAASGSTRLYAMGWYRQAPGKERELVAAIRSSGSSTYYADSVKGRFTISRDNAKNTVYLQMNSLKPEDTAVYYCNADRIRKGWRYDYWGQGTQVTVSS	high polyreactivity
QVQLVESGGGLVQAGGSLRLSCAASGLTFWLNAMGWYRQAPGKERELVAAIRYSGVGTYADSVKGRFTISRDNAKNTVYLQMNSLKPEDTAVYYCAALYNLGYPQFDYWGQGTQVTVSS	low polyreactivity
QVQLVESGGGLDQAGGSLRLSFAASGFTFGYYAMGWYRQEPGKARELVAAITYDGDTTYYADSVKGRITISRDNAKNTVYLQMNSLKPEDTAVYYCNRDVLTFNYDYWGQGTQVTVSS	low polyreactivity
QVQLVESGGGLVQAGGSLRLSCAASWYTMGWYRQAPGKERELVAAITGGGSTNYADSVKGRFTISRDNAKNTVYLQMNSLKPEDTAVYYCAKTRVLLNSYSYNIIYDYWGQGTQVTVSS	low polyreactivity
QVQLVESGGGLVHAGCSLRLSCAASGLIFGSYSMGWYRQAPGKERELVAAISRSGGSTYYADSVKGRFTISRDNAKNTVYFLMNSLKPEDTAVYYCAARGYPLGIGRIKRNYWGQGKQVTVSS	high polyreactivity
QVQLVESGGGLVQAGGSLRLSCAASGGTFYDNDMGWYRQAPGKERELVATITYSGTSTYYADSVKGRFTISRDNAKNTVYLELNSLKTEDTAVYYCATDVLLYFEPVNLDYWGEGTQVTVSS	low polyreactivity
QVQLVESGGGLVQAGGSLRLSCAASGSIFVYNDKGWYRQAPGKERELVADISSGGTTDYADSVKGRFTISRDNAKNTVYLQMNSLKPEDTAVYYCAAESYIEYYLKYDYWGQGTQVTVSS	low polyreactivity
QVQLVESGGGLVQAGGSLRLSCAASGRIFYHYAMGGYRPAPGKERELVAAISSSTGRSYYADSVKGRFTFSRDNAKNTVYLQMNSLKPEDSAVYYCATTPGYYGYISPRIRLYDYWGQGTQVTVSS	high polyreactivity

Sequence	polyreactivity (PSR sort gate)
QVQLVESGGGLVQAGGSLRLSCAASGRIFGVYGMGWYRQAPGKERELVAAISWSGATTYYADSVKGRFTISRDNAKNTVYLQMNSLKPEDTEVYYCAADFGWFYDGLAVWFIRILGVYWGQGTQVTVSS	low polyreactivity
QVQLVESVGGLVQAGGSLRLSCAASGFTFANYAMGWYRQAPGKERELVAAITWSGGRTYYADSVKGRFTISRDNAKNTVYLQMNSLKQEYTAVYYCAAGLGTLYGYWGQGTQVTVSS	high polyreactivity
QVQLVESGGGLVQAGGSLRLSCAASGRIFPGNPMGWYRQAPGKERELVAGISFSGGRTYYADSVKGRFTISRDNAKNTVYLQMNSLKPEDTAVYYCAADAQAPPGGFKEYDYWGQGTQVTVSS	low polyreactivity
QVQLVESGGGLVQAGGSLRLSCAASGRTFTPYAMGWYRQAPGKERELVAAINSDGSTNYADSVKGRFTISRDNAKNTVYLHMNSLKPEDTAVYYCAAGYSLEGDYWGQGTQVTVSS	low polyreactivity
QVQLVESGGGLVQAGGSLRLSCAASGRIFARNAMGWYRQAPGKERELVADITSTGSTNYADSVKGRFTISRDNAMNTVYLQMNSLKPEDTAVYYCAADYYTGYVWEDYYWGQGTQVTVSS	low polyreactivity
QVQLVESVGGLDQAGGSLRLRCAASGFIVGYYAMGWYRQAPGKEWEFVAAISWTGGNTYYADSVKGRFTISRDNAKNTVSLQLNSLKPEDTAVYYCNVVVSGYADRDGYNYWGQRTQVTVSS	high polyreactivity
QVQLVESGGGLVQAGGSLRLSCAASGSTFYGYTMGWYRQAPGKERELVAAISSSGSSTYYADSVKGRFTISRDNAKNTVYLQMNSLKPEDTAVYYCAAATRVPGHGSTSYYYWGQGTQVTVSS	high polyreactivity
QVQLVESGGGLVQAGGSLRLSCAASGSTFDIYAMGWYRQAPGKERELVAAIRYSGGSTYYADSVKGRFTISRDNAKYTVYLQMNSLKPEDTAVYYCAADPYQLWHYYYFGMDYWGQGTEVTVSS	low polyreactivity
QVQLVESGGGLVQAGGSLRLSCAASGRIFSGYAMGWYRQAPGKERELVAAITSVGSTNYADSVKGRFTISRDNAKNTVYLQMNSLKPEDTAVYYCARYSYRGTNVRYDYWGQGTQVTVSS	high polyreactivity
QVQLVESGGGLVQAGGSLRLICAASGRTFAYYAMGWYRQAPGKERELVAAISSAGRTYYADSVKGRFTISRDNAKNTVYLHMNSLKPEDTSDYYCAVRWLTQFNGRYGSWGQGTQVTVSS	high polyreactivity
QVQLVESGGGLDQAGGSLRLSCAASGSIFASNAMGWYRQAPGKERELVAAINSGDSTNYADSVKGRFTISRDNAKNTVYLQMNSLKPEDTAVYYCARGLEERYDYWGQGTQVTVSS	low polyreactivity
QVQLVESGGRLVQAGRSLRLSCAASGINFYGYAMGWYRQAPGKERELVAAITSYDGSTYYADSVKGRFTISRDNAKNTVYLQMNSLKPEDTAVYYCAAYRYGSRGGYWGQGTQVTVSS	high polyreactivity
QVQLVESGGGLVQAGGSLRLSCAASGSIFWSYAMGWYRHAPGKESELVAAITYSGTSTYYADSVKGRFTISRDTAKNTVYLQMNSLKPEDTAVYYCAASPFSRSRNDYWGQGTQVTLSS	low polyreactivity
QVQLEESGGGLVQAGGSLRLSCAASGIFSRYAMGWDRQAPGKERELVAAISSRGSTYYADSVKGRFTISRDNAKYTVYLQLNSMKPEDTGVYYCAATVGRGKLDYWGQGTQVNVSS	high polyreactivity
QVQLVESGGGLVQAGGSLRLSCAASGRTFVGYAMGWYRQAPGKERELVAAMSASGTSTYYADSVKGRFTISRDNAKNTVYLQMNSLKPEDTAVYYCAKAKDLPPRYGSWGQGTQVTVSS	high polyreactivity
QDQLVESGGCLVQAGGSLRLSCAASGSIFTDNVMGWYRQATGKERELVAAITSTGGNTYYADSVKGRFTISRDNAKNTVYLQMNSLKREDTAVYYCNKDVARYPYGKFDYWGQGTQVTVSS	low polyreactivity
QVQLVESGGGLVQAGGSLRLSCAASGLTSVTYAMGWYRQAPGKERELVAAITSRAGSTYYADSVKGRFTISRDNAKNTVYLQMNSLKPEDTAVYYCAKDIIRKVYAGYVGRYDYWGQGTQVTVSS	low polyreactivity
QVQLVESGGGLVQAGGSLRLSCAASGSTFVYAMGWYRQAPGKERELVAAITTGDSTYYADSVKGRFTISRDNAKNTVYLQMNSLKPEDTAVYYCAAQWYTRYGEYGYWGQGTQVTVSS	low polyreactivity
QVQLVESGGGLVQAGGSLRLSCAASGRIFLYYAMGWYRQAPGKERELVATISSGGSTTYADSVKGRFTISRDNAKNTVYLQMNSLKPEDTAVYYCATQVPGYSGRYDYWGQGTQVTVSS	low polyreactivity
QVQLVESGVGLVQARGSLRLSCAASGITFNYYAMGWYRQAPGKESELVATINRSGGTTYYADSVKGRFTISRDKAKNTDYLQMNSLKQEDTAVYDCNARYTSLGRYHSGYEYWGQGTQVTVSS	high polyreactivity
QVQLVESGGGLVQAGGSLRLSCAASGRIFDQYALGWYRQAPRKESELVAFINRGGSTNYADSVKGRFTISRDNAKNTVYLQMNSLKPEDTEVYYCAADGDYYVESQTGHTYYYWGQGTQVTVSS	low polyreactivity
